Results on six molecules are retold here after article PMC9328677 (Science Advances, 2021).

What all share (conditions): both partners purified
Assay [1] has as its target T1, stoichiometric mixture of full-length Drosophila melanogaster H2A-H2B and H3-H4 (octamer-mix) (Drosophila melanogaster, UniProt P84051 1-124; P02283 1-123; P02299 1-136; P84040 1-103).
T1 construct: histone H2A, Drosophila melanogaster, full-length; histone H2B, Drosophila melanogaster, full-length; histone H3, Drosophila melanogaster, full-length; histone H4, Drosophila melanogaster, full-length; At 300 mM NaCl without APLF^AD this is a mixture of H2A-H2B dimers and H3-H4 tetramers, not a preformed octamer; also called stoichiometric core-histone mix; histone octamer; copies: 2 + 2 + 2 + 2
The assay can be described thus: ITC; 5 μM octamer-mix in the cell titrated with 90 μM APLF^AD in the syringe; 25 mM NaPi pH 7.0, 300 mM NaCl, 25°C; one set of sites model. (In general: ITC needs no label: the signal is the heat of the interaction.)

Assay [2] deals with T1, stoichiometric mixture of full-length …. The experiment in a line: native MS; octamer-mix and APLF^AD mixed at 1:0.25 to 1:3 octamer equivalent to APLF^AD, exchanged into 300 mM ammonium acetate pH 7.5; Exactive Plus EMR.
Assay [3] has as its target T2, Drosophila melanogaster histone H3-H4 complex, full-length (Drosophila melanogaster, UniProt P02299 1-136; P84040 1-103).
T2 construct: histone H3, Drosophila melanogaster, full-length; histone H4, Drosophila melanogaster, full-length; Eluted as a histone tetramer in SEC; H3 was 2H/13C/15N-labelled for NMR on H3-H4; also called (H3-H4)2; histone tetramer; copies: 2 + 2
The experiment in a line: NMR titration; 20 μM [U-2H/13C/15N]H3-H4 incubated with 0, 10 or 20 μM APLF 459–474 peptide in 25 mM NaPi pH 7.0, 300 mM NaCl, then exchanged to 50 mM acetate pH 5; TROSY at 900 MHz, 308 K.

B1: truncated APLF^AD construct corresponding to residues 449 to 490 (APLF^AD-Δ) (domain or fragment)
chain: GLDEDNDNVGQPNEYDLNDSFLDDEEEDYEPTDEDSDWEPGKE
notes: N-terminal Gly as leftover from TEV cleavage site; human APLF residues 449 to 490; Used for crystallisation with tailless Xl. histones and in ITC with the Dm. octamer-mix; source: E. coli BL21 Rosetta2 (DE3), purified
In the case of B1, the binding result in assay [1] was “binds”.

B2: acidic domain of Homo sapiens APLF (APLF^AD, residues 450 to 511), wild type (domain or fragment)
chain: DEDNDNVGQPNEYDLNDSFLDDEEEDYEPTDEDSDWEPGKEDEEKEDVEELLKEAKRFMKRK
notes: acidic domain of human APLF (aprataxin and polynucleotide kinase-like factor), residues 450 to 511; 15N- or 2H/13C/15N-labelled for NMR; Intrinsically disordered; also called APLF^AD WT; WT; source: E. coli BL21 Rosetta2 (DE3), purified (HisTrap, TEV cleavage, anion exchange, second HisTrap)
Take B2: the “stoichiometry N” value in assay [2] was 2 APLF^AD per histone octamer equivalent.

B3: SUMO-APLF^AD quadruple anchor mutant Y462A/F468A/Y476A/W485A (QA) (domain or fragment)
chain: DEDNDNVGQPNEADLNDSALDDEEEDAEPTDEDSDAEPGKEDEEKEDVEELLKEAKRFMKRK
notes: acidic domain of human APLF, residues 450 to 511; also called APLF^AD QA; source: E. coli BL21 Rosetta2 (DE3), purified; not shown: His tag, N-terminal, cleaved; SUMO, N-terminal, kept
In the case of B3, the binding result in assay [1] is recorded as “binds”.

B4: APLF^AD double anchor mutant Y462A/F468A (DA-34) (domain or fragment)
chain: DEDNDNVGQPNEADLNDSALDDEEEDYEPTDEDSDWEPGKEDEEKEDVEELLKEAKRFMKRK
notes: acidic domain of human APLF, residues 450 to 511; source: E. coli BL21 Rosetta2 (DE3), purified
As for B4, in assay [1], the binding result is “binds”.

B5: SUMO-APLF^AD truncated QA mutant (QA-Δ, residues 449 to 490) (domain or fragment)
chain: LDEDNDNVGQPNEADLNDSALDDEEEDAEPTDEDSDAEPGKE
notes: human APLF residues 449 to 490; source: E. coli BL21 Rosetta2 (DE3), purified; not shown: His tag, N-terminal, cleaved; SUMO, N-terminal, kept
In the case of B5, in assay [1], the binding result was “binds”.

B6: peptide corresponding to APLF^459–474 (peptide)
peptide: Ac-PNEYDLNDSFLDDEEE-NH2
notes: human APLF residues 459-474; source: synthetic peptide, bought: Biomatik
Consider B6, for which, in assay [3], the binding result is on record as “binds”.
